This assay deals with FLAG-SpbK (Bacillus subtilis (ICEBs1)).

In turn, YonE-Myc (natural protein) returned a fold decrease in cellular levels of NAD^+ 15 to 30 minutes after induction of yonE in cells expressing spbK (untagged proteins) of 100 fold.

Source of the values: publication PMC11984713.
